We go through 23 sequences from the DeepSol protein solubility set.

The data set in a line: soluble on expression in E. coli; label from the status in PepcDB or PDB records.
In the case of “MNKTLIAAAVAGIVLLASNAQAQTVPEGYQLQQVLMMSRHNLRAPLANNGSVLEQSTPNKWPEWDVPGGQLTTKGGVLEVYMGHYMREWLAEQGMVKSGECPPPYTVYAYANSLQRTVATAQFFITGAFPGCDIPVHHQEKMGTMDPTFNPVITDDSAAFSEQAVAAMEKELSKLQLTDSYQLLEKIVNYKDSPACKEKQQCSLVDGKNTFSAKYQQEPGVSGPLKVGNSLVDAFTLQYYEGFPMDQVAWGEIKSDQQWKVLSKLKNGYQDSLFTSPEVARNVAKPLVSYIDKALVTDRTSAPKITVLVGHDSNIASLLTALDFKPYQLHDQNERTPIGGKIVFQRWHDSKANRDLMKIEYVYQSAEQLRNADALTLQAPAQRVTLELSGCPIDADGFCPMDKFDSVLNEAVK”, the “soluble on expression in E. coli” value is recorded as “soluble”.
The same measure for “MNKVLINDTTLRDGEQAAGVVFTLEEKVAIAKFLDTIGVPELEVGIPAMGEEEMRAICAISNLGLKANLLAWNRAVISDIKASVACGMERVHIAIPVSGIQIAAKFHGQWRVSLQRLKDCISFAVDQGLWVAVGGEDSSRADENFLLDVALYAQEWGASRFRFCDTVGVLDPFTTYGKVKLLVSALTIPVEVHTHNDFGMATANALAGIKAGASSVNTTVIGLGERAGNAALEEVVMAIKRIYGVDMGIDTPRLLELSQLVAAASGANVPPWKAIVGENTFAHESGIHAHGVLQNPDTYEPFAPEEVGWERRLVVGKHSGRHSVSNLLEQHGIFLNPEETQSVLDAVRQQSIKKKRSLTTEELLNLVKEQR”: “not soluble”; for “MNLAGSTIQAYRQRKIESLAKMSNMSQDDVTTGLRTVQQGLEALREEHSTISNTLETSVKGVKEDEAPLPKQKLSQINDNLDKLVCGVDETSLMLMVFQLTQGMDAQHQKYQAQRRRLCQENAWLRDELSSTQIKLQQSEQMVAQLEEENKHLKYMASIKQFDDGTQSDTKTSVDVGPQPVTNETLQELGFGPEDEEDMNASQFNQPTPANQMAASANVGYEIPARLRTLHNLVIQYASQGRYEVAVPLCKQALEDLEKTSGHDHPDVATMLNILALVYRDQNKYKEAANLLNEALSIREKCLGESHPAVAATLNNLAVLFGKRGKFKDAEPLCKRALEIREKVLGDDHPDVAKQLNNLALLCQNQGKYEEVEKYYKRALEIYESKLGPDDPNVAKTKNNLSSAYLKQGKYKEAEELYKQILTRAHEREFGQISGENKPIWQIAEEREENKHKGEGATANEQAGWAKAAKVDSPTVTTTLKNLGALYRRQGKYEAAETLEDVALRAKKQMSESRRMERSVMY”: “not soluble”; for “MNLDDKALFLDAMEDVQPLKRHTDVHWQPTRNLKTPQRIDTLQLDNFLTTGFLDILPLNEPLEFRREGLQQGVIDKLRSGKYPQQASLNLLRQPVETCRKMLFRFILEAQKEGLRNVLIIHGKGREAKSHANIVRSYVARWLTEFEDVQAYCSALPHHGGGGACYVALRKTVQAKQDNWERHAKRSR”: “not soluble”.
With “MNLGDLTNFVEKPLAAVSNIVNTPNSAGRYRPFYLRNLLDAVQGRNLNDAVKGKVVLITGGSSGIGAAAAKKIAEAGGTVVLVARTLENLENVANDIRAIRGNGGTAHVYPCDLSDMDAIAVMADQVLGDLGGVDILINNAGRSIRRSLELSYDRIHDYQRTMQLNYLGAVQLILKFIPGMRERHFGHIVNVSSVGVQTRAPRFGAYIASKAALDSLCDALQAETVHDNVRFTTVHMALVRTPMISPTTIYDKFPTLTPDQAAGVITDAIVHRPRRASSPFGQFAAVADAVNPAVMDRVRNRAFNMFGDSSAAKGSESQTDTSELDKRSETFVRATRGIHW” the entry was “soluble”.
As for “MNLHQTVEHEAAAAFAAAGIAGSPVVLQPTKNAEHGDFQINGVMGAAKKAKQNPRELAQKVADALAGNAVIESAEVAGPGFINLRLRHEFLAQNIHAALNDARF”, the “soluble on expression in E. coli” value is “not soluble”.
Turning to “MNLIDYKARERGIEVEMPDERGTSSSCSVCGHEDEDSRVERGLWKCDCCGIVAHGDVNGADNIRQKTLPVTPPLGGSGNGCLAQPCVIQFSRTRGFQPRAPAELEHHHHHH”, the “soluble on expression in E. coli” value is given as “soluble”.
With “MNLKDMEQNSAKAVVLLKAMANERRLQILCMLHNQELSVGELCAKLQLSQSALSQHLAWLRRDGLVTTRKEAQTVYYTLKSEEVKAMIKLLHSLYCEE” the entry was “soluble”; with “MNLNFIVPDINMTFGDMKFMGLNRERYVYDRENNKRTDVLESRIYNIASAVQGGQIEVTIPEYAGAKEIPPFADIELKNPKISAMATSQRDSTYANVMWKLEADDIVVKGGSSVKPAAATGGNEKKLEHHHHHH”, “not soluble”.
Consider “MNLNKNLPTGTRDKLFREARASYQIEQQVNHYFAKRGFKRIETPVIEFEDVFSSEHQADAKLYRFFDEKGRLTVLRPDMTLPIGRVVSTTGVTLPLKLSYSGKIFRANEDFGGEQNEQTQAGIEIIGYPSIKAEIECILSGIGVLNALEIPNFQIELGHAAIYRRVIHLLNLPETAEMDFRLLIQNKSLTGIQQFVTENPSTLDDFILALPRLFGPATTILKQAKNLTTDKGILTALTEMETIVDAVSYAADISVDLGLVQDFHYYTGIIFRGYADLAADNFLSGGRYDHLLEQFTSSSSPAVGLALNLDSLTT”, for which the “soluble on expression in E. coli” value was “not soluble”.
As to “MNLPDGTQLVVGRQLAKVKSNQNWIRIPEYKVRGNKVIISHLWVGSINMPRRPFWSFRELWEKHLGRKDAINVWSRIRSYNTQVLLKILELLEKEPETQAKKLVKRATMHQLRNIAESFEEL”, the “soluble on expression in E. coli” value is “not soluble”.
With “MNLSEITQQMGEVGKTLSDSVPELLNSTDLVNDPEKMLELQFAVQQYSAYVNVESGMLKTIKDLVSTISNRSF” the entry was “not soluble”; with “MNLVPPKEEENLIVFNKQLGEDRRIVMSRSNLNELLKALEENELLCTDLYQVNTDGVILTKQRAEKVIGWARNHYLSSCPSPSIKEGRLILPRESIEISVKRLKAQEDISRKPTQNLKRFLFLQNIAKDEFETNFVSAVVAPGEIGVKFDDIGALEHVKKTLNELVILPMRRPELFTRGNLLRPCKGILLFGPPGTGKTLLAKALATEAGANFISITGSTLTSKWFGDAEKLTKALFSFASKLAPVIIFVDEVDSLLGARGGAFEHEATRRMRNEFMAAWDGLRSKDSQRILILGATNRPFDLDDAVIRRLPRRIYVDLPDAENRLKILKIFLTPENLETGFEFDKLAKETEGYSGSDLKNLCIAAAYRPVQELLQEENKDSVTNASPDLRPLSLDDFIQSKAKVSPSVAYDATTMNELRKWNEQYGEGGTRTKSPFGF”, “soluble”.
Regarding “MNMKNELHVISNGHMPFEELVNVAMQIESEIDYLHIREREKSTKELYEGVESLLMEGFPASKIVINDRIDIAILLNIPRVQLGYRSTDVKSVKEKFSYLHVGYSVHSLDEAIVAFKNGADSLVYGHVFPTDCKKGVPARGLEEISDIARCLSIPITAIGGITPENTVDVLTNGVSGIAVMSGIVSSSNPYSKAKSYKESIRKWAEKHV”, the “soluble on expression in E. coli” value is “not soluble”.
With “MNMNAKIIDQDNKGIGVRVHDNDETEHTVAVGFDGEIQGHSQDGYPDDPAKRTGKENEYVSQARRYAKYYVAKEKGYDVLPWDRDTAAMQRVQTAIESLSDEDFEKYFGTYFDQINSRLPNVTAPVPEPDAVGDDEFVLYLLDVYLDEAGRIEAVSDIHFLYLDDNRERQVVLGDQPLNRDPDARLQLKPNYLPSLEVAQEFFVYHLRCQIRDCYLLRGEEPPEQYRVIGPGLYDAATRYLYEDRPYRPYHKLHADIPGYSLEFDYGFGEQGKEMAKIAGAVADNK” the entry was “not soluble”; with “MNNDHLDPINSLNVPELADTTFAMDFLIRAKEGVRNTAVALTETASPDVRALLRKQLMQGIAMHQEITELMISKKWFHPYELSEQYKLDQLSAKNTIMVGNMNLFPDETNRKGMFDRTPDEHMAGDPLEHHHHHH”, “not soluble”.
With “MNNGFFNSDFDSIFRRMMKDMQGSNQVGNKKYYINGKEVSPEELAQLTQQGGNHSAEQSAQAFQQAAQRQQGQQGGNGNYLEQIGRNLTQEARDGLLDPVIGRDKEIQETAEVLSRRTKNNPILVGEAGVGKTAIVEGLAQAIVEGNVPAAIKDKEIISVDISSLEAGTQYRGAFEENIQKLIEGVKSSQNAVLFFDEIHQIIGSGATGSDSGSKGLSDILKPALSRGEISIIGATTQDEYRNNILKDAALTRRFNEVLVNEPSAKDTVEILKGIREKFEEHHQVKLPDDVLKACVDLSIQYIPQRLLPDKAIDVLDITAAHLSAQSPAVDKVETEKRISELENDKRKAVSAEEYKKADDIQNEIKSLQDKLENSNGEHTAVATVHDISDTIQRLTGIPVSQMDDNDIERLKNISNRLRSKIIGQDQAVEMVSRAIRRNRAGFDDGNRPIGSFLFVGPTGVGKTELAKQLAIDLFGNKDALIRLDMSEYSDTTAVSKMIGTTAGYVGYDDNSNTLTEKVRRNPYSVILFDEIEKANPQILTLLLQVMDDGNLTDGQGNVINFKNTIIICTSNAGFGNGNDAEEKDIMHEMKKFFRPEFLNRFNGIVEFLHLDKDALQDIVNLLLDDVQVTLDKKGITMDVSQDAKDWLIEEGYDEELGARPLRRIVEQQVRDKITDYYLDHTDVKHVDIDVEDNELVVKGK” the entry was “not soluble”; with “MNNHFKCIGIVGHPRHPTALTTHEMLYRWLCTKGYEVIVEQQIAHELQLKNVKTGTLAEIGQLADLAVVVGGDGNMLGAARTLARYDIKVIGINRGNLGFLTDLDPDNAQQQLADVLEGHYISEKRFLLEAQVCQQDCQKRISTAINEVVLHPGKVAHMIEFEVYIDEIFAFSQRSDGLIISTPTGSTAYSLSAGGPILTPSLDAITLVPMFPHTLSARPLVINSSSTIRLRFSHRRNDLEISCDSQIALPIQEGEDVLIRRCDYHLNLIHPKDYSYFNTLSTKLGWSKKLFMAGDPLEHHHHHH”, “soluble”; with “MNNIRLLNQNDLDSYIELMKFGHHNYEWDRYYLENVSIDRLKTILSNHTDYWNIFGAFEDDELVATCTLKQMNYVGKCHKAILENNFVKNNDEIVNRELINHIIQYAKEQNIETLMIAIASNNISAKVFFSSIGFENLAFEKNASKIGNEYFDENWLIYSTTE”, “not soluble”.
The same measure for “MNNNDVLRKLRYTFNFNDKQMVAIFASAGEEVSREQVSQWLKKDTDSDFVALFDTKLAVFLNGFINEKRG”: “not soluble”; for “MNNSAFTFQTLHPDTIMDALFEHGIRVDSGLTPLNSYENRVYQFQDEDRRRFVVKFYRPERWTADQILEEHQFALQLVNDEVPVAAPVAFNGQTLLNHQGFYFAVFPSVGGRQFEADNIDQMEAVGRYLGRMHQTGRKQLFIHRPTIGLNEYLIEPRKLFEDATLIPSGLKAAFLKATDELIAAVTAHWREDFTVLRLHGDCHAGNILWRDGPMFVDLDDARNGPAVQDLWMLLNGDKAEQRMQLETIIEAYEEFSEFDTAEIGLIEPLRAMRLVYYLAWLMRRWADPAFPKNFPWLTGEDYWLRQTATFIEQAKVLQEPPLQLTPMY”: “soluble”.
With “MNPDEPNFIWKDLNAVRDMGCIIENELSEVLPNKRYETYSIIGRSGEFNETFNDYEPFDYEIEDVTIPYENLAAVKRWLTGKSKLITHNDEDKYLDAICTMSKPTSFKNEWGVFYTFNVEFRCQPFKRKVNEQPKVIKTKSIEITDHGDEIAFPYIEINSKGGDITLNIGSNSLTILRTQSGIVTIDTEKGKAIQEGNPLFTRGSWIKTNPGQNKLNISGNFIEAKFWNRSAYL”, the “soluble on expression in E. coli” value was “not soluble”.
As for “MNPESRVIRKVLALQNDEKIFSGERRVLIAFSGGVDSVVLTDVLLKLKNYFSLKEVALAHFNHMLRESAERDEEFCKEFAKERNMKIFVGKEDVRAFAKENRMSLEEAGRFLRYKFLKEILESEGFDCIATAHHLNDLLETSLLFFTRGTGLDGLIGFLPKEEVIRRPLYYVKRSEIEEYAKFKGLRWVEDETNYEVSIPRNRIRHRVIPELKRINENLEDTFLKMVKVLRAEREFLEEEAQKLYKEVKKGNCLDVKKLKEKPLALQRRVIRKFIGEKDYEKVELVRSLLEKGGEVNLGKGKVLKRKERWLCFSPEV”, the “soluble on expression in E. coli” value is “soluble”.
